These results are taken from patent US20160046706A1 (MEDICAL AND BIOLOGICAL LABORATORIES, published 2016).

The target in test [1] is T1, human NRG1-β1 protein (full length, HA tag at the N-terminus, on NRG1-b/st293T cells) (human, UniProt Q02297 20-640).
T1 construct: also called NRG1 isoform 1; HA-NRG1-b/st293T; not shown: HA tag added to the N-terminus
T1 sequence: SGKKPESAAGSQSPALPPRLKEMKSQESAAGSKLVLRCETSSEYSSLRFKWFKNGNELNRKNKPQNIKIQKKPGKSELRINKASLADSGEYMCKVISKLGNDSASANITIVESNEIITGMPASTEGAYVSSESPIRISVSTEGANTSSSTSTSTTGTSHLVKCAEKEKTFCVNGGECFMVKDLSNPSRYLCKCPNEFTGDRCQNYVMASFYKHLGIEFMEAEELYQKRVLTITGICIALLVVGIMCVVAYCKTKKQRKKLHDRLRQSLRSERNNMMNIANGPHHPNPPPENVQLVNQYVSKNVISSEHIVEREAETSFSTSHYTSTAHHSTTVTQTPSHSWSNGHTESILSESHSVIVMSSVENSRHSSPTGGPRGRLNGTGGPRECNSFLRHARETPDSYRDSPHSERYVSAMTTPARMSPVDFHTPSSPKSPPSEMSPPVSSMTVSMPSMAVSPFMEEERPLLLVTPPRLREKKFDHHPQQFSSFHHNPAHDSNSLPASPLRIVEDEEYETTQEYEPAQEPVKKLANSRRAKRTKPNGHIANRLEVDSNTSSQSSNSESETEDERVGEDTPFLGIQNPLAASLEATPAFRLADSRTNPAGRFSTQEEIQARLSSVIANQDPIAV
Kind of test: flow cytometry on NRG1-b/st293T cells.

For test [2], the target named is T2, EGF (R&D Systems 236-EG-200) (UniProt P01133 971-1023).
T2 construct: Bought protein
As to the kind of experiment: ELISA, factor on the plate at 0.5 µg/mL (FIG. 8). How it is done: (§1) After the solution was removed, 1% BSA (manufactured by Nacalai Tesque, Inc.: 01863-35)—5% Sucrose (manufactured by WAKO PURE CHEMICAL […], LTD.)—PBS was added in an amount of 150 μL/well, and left to stand at room temperature for 2 hours to block the remaining active groups. After the resultant was left to stand, the solution was removed, and the hybridoma culture supernatant was dispensed as a primary antibody in an amount of 50 μL/well and left to stand for 1 hour. After the plate was washed with 0.05% Tween 20-PBS, an HRP-labeled anti-mouse IgG antibody (manufactured by MBL Co., Ltd.: 330) having been diluted 10000 times was added as a secondary antibody in an amount of 50 μL/well and left to stand at room temperature for 1 hour. After the plate was washed with 0.05% Tween 20-PBS, a color developing solution (5 mM sodium citrate, 0.8 mM 3.3′.5.5′-tetramethylbenzidine-2HCl, 10% N,N-dimethylformamide, 0.625% polyethylene glycol 4000, 5 mM citric acid monohydrate, 5 mM H2O2) was added thereto in an amount of 50 μL/well and left to stand at room temperature for 20 minutes to develop a color. The color development was terminated by adding 1 M phosphoric acid in an amount of 50 μL/well. Then, the absorbance at 450 nm was measured using a plate reader (manufactured by Thermo Fisher Scientific Inc.).
(§2) As described above, any homology with the NRG1 protein is low in the EGF domain. Nonetheless, 8a4, 10bM3, and 10b2M3 capable of recognizing the vicinity of the EGF domain were analyzed for the reactivity with the other factors of the EGF family by the same ELISA as above. To be more specific, each of EGF (manufactured by R&D Systems, Inc.: 236-EG-200), HB-EGF (manufactured by R&D Systems, Inc.: 259-HE-050/CF), TGF-alpha (manufactured by R&D Systems, Inc.: 239-A-100), AREG (manufactured by R&D Systems, Inc.: 262-AR-100/CF), NRG1-α (manufactured by R&D Systems, Inc.: 296-HR-050/CF), or NRG1-b (manufactured by R&D Systems, Inc.: 296-HB-050/CF) was dispensed in a 96-well ELISA plate in an amount of 0.5 μg/mL, that is, 50 μL/well, and immobilized thereto, for detection of the reaction with each antibody in amounts of 10 μg/mL and 1 μg/mL.

In test [3] the target is T3, HB-EGF (heparin-binding EGF-like growth factor; R&D Systems 259-HE-050/CF) (UniProt Q99075 63-148).
T3 construct: Bought protein
Kind of test: ELISA, factor on the plate at 0.5 µg/mL (FIG. 8). How it is done: as §1, §2

The target in test [4] is T4, TGF-alpha (transforming growth factor α; R&D Systems 239-A-100) (UniProt P01135 40-89).
T4 construct: Bought protein; also called TGFα; TGF-α
Kind of test: ELISA, factor on the plate at 0.5 µg/mL (FIG. 8). Here is the method:
as §1, §2

Test [5] has as its target T5, AREG (amphiregulin; R&D Systems 262-AR-100/CF) (UniProt P15514 101-198).
T5 construct: Bought protein
T5 sequence (looked up): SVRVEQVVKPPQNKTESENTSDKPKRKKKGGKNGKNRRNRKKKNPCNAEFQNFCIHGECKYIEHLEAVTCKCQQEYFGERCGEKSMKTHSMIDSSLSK
As to the kind of experiment: ELISA, factor on the plate at 0.5 µg/mL (FIG. 8). How it is done:
as §1, §2

Test [6] deals with T6, agPa (synthetic peptide containing the cleavage region of NRG1-a, bound to KLH); positions 221 to 244 of the … (human, bound to KLH).
T6 peptide: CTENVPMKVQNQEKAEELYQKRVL
Kind of test: ELISA, partial-length NRG1 protein on the plate (FIG. 4). Here is the method:
Hybridomas producing anti-NRG1 antibodies were selected by the enzyme-linked immunosorbent assay (ELISA). The assay used the recombinant human NRG1 proteins as immunogens, which had been dispensed in a 96-well ELISA plate (manufactured by nunc A/S) in an amount of 0.5 μg/mL, that is, 50 μL/well, and left to stand at room temperature for 2 hours or 4° C. overnight for adsorption. After the solution was removed, 1% BSA (manufactured by Nacalai Tesque, Inc.: 01863-35)—5% Sucrose (manufactured by WAKO PURE CHEMICAL […], LTD.)—PBS was added in an amount of 150 μL/well, and left to stand at room temperature for 2 hours to block the remaining active groups. After the resultant was left to stand, the solution was removed, and the hybridoma culture supernatant was dispensed as a primary antibody in an amount of 50 μL/well and left to stand for 1 hour. […] Then, the absorbance at 450 nm was measured using a plate reader (manufactured by Thermo Fisher Scientific Inc.).
The sequences recognized by 8a2, 8a4, 10bM3, and 10b2M3 were analyzed by evaluating the reactivity with the recombinant NRG1 proteins. To be more specific, the analysis was performed using multiple partial-length NRG1 proteins, and the reactivity of each antibody with these was detected by the same enzyme-linked immunosorbent assay (ELISA) as above. […] The vertical axis represents the absorbance.

Test [7] deals with T7, human NRG1-α protein (full length, HA tag at the N-terminus, on NRG1-a/st293T cells) (human, UniProt Q02297 20-640).
T7 construct: also called NRG1 isoform 2; HA-NRG1-a/st293T; not shown: HA tag added to the N-terminus
T7 sequence: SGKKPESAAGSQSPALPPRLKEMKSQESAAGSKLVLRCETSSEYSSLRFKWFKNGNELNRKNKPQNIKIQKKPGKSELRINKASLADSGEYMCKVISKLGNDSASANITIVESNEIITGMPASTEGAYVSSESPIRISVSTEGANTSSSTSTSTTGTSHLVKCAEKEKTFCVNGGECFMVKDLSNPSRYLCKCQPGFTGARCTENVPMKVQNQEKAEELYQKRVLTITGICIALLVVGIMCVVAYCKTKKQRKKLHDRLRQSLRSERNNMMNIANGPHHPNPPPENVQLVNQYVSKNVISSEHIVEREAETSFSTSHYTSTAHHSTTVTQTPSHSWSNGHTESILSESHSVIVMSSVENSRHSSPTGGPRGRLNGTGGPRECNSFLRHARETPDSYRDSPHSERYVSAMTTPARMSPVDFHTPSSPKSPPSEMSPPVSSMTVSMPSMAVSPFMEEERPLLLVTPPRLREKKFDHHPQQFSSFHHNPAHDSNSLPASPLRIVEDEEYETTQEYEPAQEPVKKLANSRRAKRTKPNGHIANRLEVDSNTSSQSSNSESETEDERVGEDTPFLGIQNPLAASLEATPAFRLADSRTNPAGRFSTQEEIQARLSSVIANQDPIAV
As to the kind of experiment: ELISA on partial-length proteins and flow cytometry on NRG1-a/st293T cells (FIGS. 5 to 7).

T2 sequence (P01133 971-1023 limits assumed): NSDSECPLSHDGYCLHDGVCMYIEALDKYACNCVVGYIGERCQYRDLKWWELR
T3 sequence (Q99075 63-148 limits assumed): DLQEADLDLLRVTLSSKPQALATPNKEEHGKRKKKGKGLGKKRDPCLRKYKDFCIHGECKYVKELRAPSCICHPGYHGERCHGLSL
T4 sequence (P01135 40-89 limits assumed): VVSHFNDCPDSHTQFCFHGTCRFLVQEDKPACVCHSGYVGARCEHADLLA

B1: 8a4 (antibody, mouse IgG1, V domains shown)
VH: EVQLQQSGADLVRPGASVKLSCTASGFNIKDDYIHWVKQRPEQGLEWIGWIDPENGDTEYASQFQGKATITADTSSNTAYLQLRSLTSEDTAVYYCTTSDHRAWFAFWGLGTLVTVSS
VL: DVLMTQTPLSLPVSLGDQASISCRSSQTIVHRNGNTYLEWYLQKPGQSPKLLIYRVSNRFSGVPDRFSGSGSGTDFTLKISRVEAEDLGVYYCFQGSHVPLTFGAGTKL
notes: Mouse monoclonal antibody; Variable genes were amplified with mouse IgG1 CH1 and kappa constant region primers; The printed VL ends at ...GTKL; also called 8a4 antibody
Consider B1, for which the binding result in test [1] was “no binding (tested: 5 µg/mL)”; in test [2], “no binding (tested: 10 µg/mL and 1 µg/mL)”; in test [3] it was “no binding (tested: 10 µg/mL and 1 µg/mL)”; in test [4], “no binding (tested: 10 µg/mL and 1 µg/mL)”; in test [5] it was “no binding (tested: 10 µg/mL and 1 µg/mL)”; in test [6] it was “binds”.

B2: 10b2M3 (antibody, mouse IgG1, V domains shown)
VH: QVQLQQSGPELVKPGASVKISCKASGYAFSSSWMNWVKQRPGKGLEWIGRIYPGDGDIYYNGKFKGKATLTADKSSSTAYMQLNSLTSEDSAVYFCARTFNYPFFAYWGQGTLVTVSS
VL: DILMTQSPSSLTVSTGEKVTMSCKSSQSLLASANQNNYLAWHQQKPGRSPKMLIIWASTRVSGVPDRFIGSGSGTDFTLTINSVQAEDLAVYYCQQSYSAPTTFGAGTKL
notes: Mouse monoclonal antibody; Variable genes were amplified with mouse IgG1 CH1 and kappa constant region primers; The printed VL ends at ...GTKL; also called 10b2M3 antibody
As for B2, the binding result was “no binding (tested: 10 µg/mL and 1 µg/mL)” in test [2]; “no binding (tested: 10 µg/mL and 1 µg/mL)” in test [3]; “no binding (tested: 10 µg/mL and 1 µg/mL)” in test [4]; “no binding (tested: 10 µg/mL and 1 µg/mL)” in test [5]; “no binding” in test [7].

B3: 10bM3 (antibody, mouse IgG1, V domains shown)
VH: EVQLVESGGGLVKPGGSRKLSCAASGFTFSDYGIHWVRQAPEKGLEWLAYISSGSSTIYYADTVKGRFTISRDNAKNTLFLQMTSLRSEDTAMYYCARGSNYVGYYAMDYWGQGTSVTVSS
VL: DIVMTQSPSSLAVTAGEKVTMRCKSSQSLLWSVNQKNYLSWYQQKEGQSPKLLIYGASIRESWVPDRFTGSGSGTDFTLTISNVHAEDLAVYYCQHNHGRFLPLTFGGGTKL
notes: Mouse monoclonal antibody; Variable genes were amplified with mouse IgG1 CH1 and kappa constant region primers; The printed VL ends at ...GTKL
Take B3: the binding result in test [2] was “no binding (tested: 10 µg/mL and 1 µg/mL)”; in test [3] it was “no binding (tested: 10 µg/mL and 1 µg/mL)”; in test [4], “no binding (tested: 10 µg/mL and 1 µg/mL)”; in test [5] it was “no binding (tested: 10 µg/mL and 1 µg/mL)”; in test [7], “no binding”.
